The values that follow come from publication PMC12804668.

The experiment concerns the target Ec78 PtuA ATPase (E. coli ECONIH5). Nature of the experiment: cryo-EM structure.

The term stoichiometry N denotes the number of molecules, sites or subunits per partner or assembly. On to Ec78 PtuA ATPase (enzyme), for which the stoichiometry N amounted to 4.
